± gives the half width of the 95% confidence interval.
Columns and labels:
[1] = folding stability dG unfold from chymotrypsin proteolysis; higher = more stable
Protocol: (§1)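 Folding stability of de novo designed mini-proteins (<80 aa, no Cys; designed by TrROS, TrMRF, ProteinMPNN and the joint model) was measured by cDNA display proteolysis with trypsin and chymotrypsin. Each protease was used at 11 concentrations in a threefold dilution series plus a no-protease condition. K50 was inferred by Bayesian fitting of sequencing counts, and dG unfold was derived against a sequence-predicted unfolded-state K50 (Tsuboyama et al. method). Sequences shown include variable-length N-terminal GS-type padding (SAGGSAGG...) inside a display construct carrying a PA tag. Rows were kept only if the AF2 dimer inter-PAE was >15, to exclude likely homo-oligomers.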

[2] = folding stability dG unfold (combined trypsin and chymotrypsin); higher = more stable
Protocol: as §1

Sequence	folding stability dG unfold [1]	folding stability dG unfold [2]
SMTLVGTTTLPNATVTTYKNETKYIVLTYDPVEAGEPAAVSYVEKYEGNKVVKKKKVAPEEIEKAIEELLSA [r9_57_JUSTAS]	0.609 ± 0.32 kcal/mol	0.247 ± 0.48 kcal/mol
SAGGMTIVSSGPSIEQALQEAAEAGGDATVIYKEPESNTIITLDVKYDPAPRTITVLSETETPVPPLLSAGG [r13_309_JUSTAS]	0.758 ± 0.079 kcal/mol	0.17 ± 0.1 kcal/mol
SAGGSYMVKVEWRNNNKEMEMTHPFDDPEDALNFAHDLLPNGMELDIEVFDPKEGEPIGTVPFRVDSAGGSA [r2_390_TrROS]	-0.536 ± 0.26 kcal/mol	< -1 kcal/mol
MTTETLEEEEIPEEGIRIETVRTTDASGKPSTETVVTYEEVPLEPENTAPPVKFDDKGKRYNPGIGLEGLDS [r1_270_JUSTAS]	-0.664 ± 0.24 kcal/mol	< -1 kcal/mol
SAGGSAGGSAGGMKVTVEYPDALSVEVEPDSATTTYPNGSRIVVEAPGVTTYDPLPPERSSAGGSAGGSAGG [r7_30_JUSTAS]	0.117 ± 0.046 kcal/mol	-0.39 ± 0.24 kcal/mol
SAGGSAGGSAGGPPIIEFPIKGDNPEQAKRFAKEVVDLLPDQNPENVDITTTDGWVRITSAGGSAGGSAGGS [r10_182_TrROS]	-0.636 ± 0.67 kcal/mol	< -1 kcal/mol
SAGEYKVEEKDGKLYVTYPNGEKKEVEVKPAPPPVVTIKVKSVEELKALAEELNLEITEISEDTVVVKFSAG [r5_328_TrROS_Hall]	0.0799 ± 0.38 kcal/mol	-0.643 ± 0.62 kcal/mol
SAGGSAGGSAGGSPFWRIKIENPGNGKEITVMVPPDDIDKAKEEAEQEGLKKIEIEPVPSAGGSAGGSAGGS [r4_102_TrROS]	-0.0872 ± 0.3 kcal/mol	-0.993 ± 0.7 kcal/mol
SAGGSAGGSAGGMITVNPRGGTATFTTSSGETTTVPASLADQVRVDTGLPDAPVFTAPPASAGGSAGGSAGG [r7_235_JUSTAS]	0.183 ± 0.23 kcal/mol	< -1 kcal/mol
SAGGFKIERERDPDNGIRKIEFRFPDNGYRVKATINPDNDKIHIWGPNPAIREALPELGITNVEVEPWSAGG [r13_511_TrROS]	-0.811 ± 0.78 kcal/mol	< -1 kcal/mol
SAGGSAGGSAGGSPRHYYVEIEFPNGRKMSIPIESPEEALDYLEDHNYPIKDVELHPLKSAGGSAGGSAGGS [r4_213_TrROS]	0.0167 ± 0.25 kcal/mol	-0.323 ± 0.41 kcal/mol
SAGGSAGGSAGPRRFMFQIPADEVKLEFPGGAKVTDVEEDPDGYRRVMIEIPPGADPELKSAGGSAGGSAGG [r17_48_TrROS]	0.142 ± 0.32 kcal/mol	-0.129 ± 0.2 kcal/mol
SAGGSAGGSAMLTLRFELPDGSERELRLPGVTPEEAAALAAELARREGVARVEVYPPGVERSAGGSAGGSAG [r3_160_JUSTAS]	0.532 ± 0.26 kcal/mol	-0.823 ± 0.44 kcal/mol
SKTIYFPIPNDDPEEAVEWIADKLLEEHGHKIKDVEIPHKNGYYVRIEVDPNNPKIDIEVWPYDPDGEPLSA [r9_173_TrROS]	0.728 ± 0.18 kcal/mol	0.534 ± 0.52 kcal/mol
SAGGSAGGSAGGSTVTVTSEEEAQEAREALAAERAAAEPGAEPPEAFPVEVEVVPPELRSAGGSAGGSAGGS [r4_498_JUSTAS]	0.633 ± 0.047 kcal/mol	0.0161 ± 0.22 kcal/mol
SAGGSAGGSAGSMDSLPMPQVTPKVVELNVPPEEAEKLKKELGAKEIKFSPEGKLIIYLESAGGSAGGSAGG [r11_64_JUSTAS]	-0.353 ± 0.078 kcal/mol	-0.453 ± 0.2 kcal/mol
MTEKKEESLGEKKRITTTKPQEDGNPVVTERIIDPNGTIEKVIVKKSSPNKPTTEELPPFSTSNKEIVEKLS [r1_301_JUSTAS]	-0.691 ± 0.14 kcal/mol	-0.821 ± 0.4 kcal/mol
NIRFPDGREIEIPPEPGEEYEIMLPNGPEIKIKKIKYENGEPTIEIERKDGGKKEHEMPPNQPDQILDAIRS [r1_66_TrROS]	0.421 ± 0.051 kcal/mol	0.0319 ± 0.29 kcal/mol
SAGPAVAVAPIPALEARPDLKDALVRVVVSPLPDGRVAVDVRPVFVPKPVITPEEARELEELAEKLAASAGG [r19_313_TrMRF]	0.297 ± 0.027 kcal/mol	-0.224 ± 0.13 kcal/mol

Sequence	folding stability dG unfold [1]	folding stability dG unfold [2]
SSTSMSTEPNRTVTTTTEKGGRSTVTTTTTTTFTASGETTTTTPVTTTTPPPPLGVYKDPAGVTRTRPLLSA [r9_456_JUSTAS]	0.339 ± 0.079 kcal/mol	-0.012 ± 0.072 kcal/mol
SAGGSAGGSAGGGRVLRLADGKWRLVELPDGSVVLVPENVPVLDPEAKEPVLVAPVLPLDSAGGSAGGSAGG [r7_968_TrMRF]	0.938 ± 0.073 kcal/mol	0.223 ± 0.06 kcal/mol
SAGGSAGGSDKIRKALKELGYPYEIDNIDVNVTKNGNPEIEIKYSPGMPPQDQKRIKRAVIDLSAGGSAGGS [r12_352_TrROS]	-0.14 ± 0.065 kcal/mol	-0.469 ± 0.15 kcal/mol
SSSSLLKSSTEEVEVSTTFTKTSPDGSLTPVGTTTEVVTKTVKTVPKEILEKLKKEKEKPLPPEGNLGYLSA [r9_1192_JUSTAS]	0.495 ± 0.36 kcal/mol	0.000763 ± 0.41 kcal/mol
SAGGKARITRIEAEPDPLRVEVEVELPDGRKVRAVAVVPPGEGGVARVRTAVDFGEGVVPAADIEIPPSAGG [r13_728_TrMRF]	0.704 ± 0.016 kcal/mol	0.236 ± 0.052 kcal/mol
SGMTTPVAEIDNTDGKPEKVKEWIKKTIPKTPPVTVTRTLASGAPSTWTIDPNTGKVTESVPGGHVTVAASA [r9_853_JUSTAS]	-1.07 ± 0.7 kcal/mol	< -1 kcal/mol
SAGRRKVEIPIPFDDPGQAMSADELADELRELGLKPGHEPKVEPHPDGYMRVKFEVPGPEVTIHIPMWDSAG [r5_144_TrROS]	0.747 ± 0.16 kcal/mol	0.183 ± 0.098 kcal/mol
SAGPEIKIEPRSYDPKKGIFTYSAYVLDYKDGKKEREIEVGTWRYYGPDGTVEPISEEDILQKAKDLLSSAG [r5_909_TrMRF]	0.543 ± 0.32 kcal/mol	0.371 ± 0.18 kcal/mol
SAGGSAGGSAGGSPVIFVDPVEGRARVLLAAPAPNPDGEPGGLGLAEVEFEVGDVRLLLSAGGSAGGSAGGS [r4_10_TrMRF]	0.753 ± 0.075 kcal/mol	-0.00848 ± 0.12 kcal/mol
SAGGSAGGSDKDVKIKVDPERTPDGNYYYRIEIENGKEINIHMPPENMTPEDAKDFVKDIIKKSAGGSAGGS [r12_218_TrROS]	-0.44 ± 0.39 kcal/mol	< -1 kcal/mol
SAGGGSMVIPVSPEEKEAALKLLEALPSKDVKVTVTDPATGTTTTLTPEEAKKLIEATDTPLVLTLSSAGGS [r16_263_JUSTAS]	2.92 ± 0.08 kcal/mol	3.42 ± 0.16 kcal/mol
SAMKIEIEVPSLEQVKKLEKLLPDKYKISEVKVDPETKKVYVIIELDPSLSPEEVAKLEKEFEEVVKEESAG [r14_306_TrMRF]	5.03 ± 0.28 kcal/mol	5.14 ± 0.58 kcal/mol
SAGGSAGGSEPRLILTTFPLPEPGEPVLRLLVIGEDRILAVRVVGEKPELRELDRLDDLLAEQSAGGSAGGS [r12_299_TrMRF]	-0.433 ± 0.46 kcal/mol	< -1 kcal/mol
SAGGSAGGSAGGMTTLVLPAEVEPVPDGVRVRLPDGEDLYVPPGERVERTPDRVEVTLGSAGGSAGGSAGGS [r10_305_JUSTAS]	0.383 ± 0.058 kcal/mol	-0.448 ± 0.25 kcal/mol
SAGGSAGGSAGGGMKLRLVTYSITTTNKVFPSLEEALAAPPDETDGVDEIISSSLKPLLSAGGSAGGSAGGS [r10_729_JUSTAS]	0.21 ± 0.17 kcal/mol	-0.326 ± 0.15 kcal/mol
SMYVFSTGSKPSSEQLLEKLEKVPNLPKELIKKNTIISDTESSPEIVIPKEVYDKIKKENPEAVKVIESGSA [r9_160_JUSTAS]	-0.991 ± 0.56 kcal/mol	< -1 kcal/mol
SAGGSAGGSAGGVTVSPEEYLATFPPGLTLRDSAGNLHELGDRAPVDPAAPVTLLSPEELSAGGSAGGSAGG [r7_507_JUSTAS]	0.464 ± 0.039 kcal/mol	-0.18 ± 0.12 kcal/mol
SIIIPPKESAEEVLNEIKELLPPGRKYKITVFNPENGRMHEADFDPKKGNIEVEPHPFPNGPPFLMIERKSA [r9_1059_TrROS]	-0.387 ± 0.63 kcal/mol	-0.42 ± 0.49 kcal/mol
